Results from FireProtDB (doi:10.1016/j.jmb.2004.06.079).

B1: Malate dehydrogenase, P80040 (parent)
chain: MRKKISIIGAGFVGSTTAHWLAAKELGDIVLLDFVEGVPQGKALDLYEASPIEGFDVRVTGTNNYADTANSDVIVVTSGAPRKPGMSREDLIKVNADITRACISQAAPLSPNAVIIMVNNPLDAMTYLAAEVSGFPKERVIGQAGVLDAARYRTFIAMEAGVSVEDVQAMLMGGHGDEMVPLPRFSTISGIPVSEFIAPDRLAQIVERTRKGGGEIVNLLKTGSAYYAPAAATAQMVEAVLKDKKRVMPVAAYLTGQYGLNDIYFGVPVILGAGGVEKILELPLNEEEMALLNASAKAVRATLDTLKSL

Variants of: B1
Settings: Chloroflexus aurantiacus (strain ATCC 29366 / DSM 635 / J-10-fl), Thermal, CD, structure 1GUY, whole UniProt chain shown
[1] = pH 6, potassium phosphate 10 mM
[2] = pH 7.5, potassium phosphate 10 mM

Variant	Tm (pH 4.4, sodium acetate 10 mM) [°C]	change of melting temperature, mutant - wild type (higher = more stable) (pH 4.4, sodium acetate 10 mM) [°C]	Tm [1] [°C]	change of melting temperature, mutant - wild type (higher = more stable) [1] [°C]	Tm [2] [°C]	change of melting temperature, mutant - wild type (higher = more stable) [2] [°C]
E165K	85	4.6	91.4	12	91.7	23.9
E165Q	85.8	5.4	–	–	91.4	23.6
